Laboratory results: the supplement of paper PMC10567573

B1: ZNF207 (parent)
chain: FPSAGQAQAAVQGPVGTDFKPLNS

Variants of: B1
Experiment: protein stability index of a GFP-peptide fusion (GPS, HEK-293T) (PSI 1-6); higher = more stable
Conditions: c terminus: a fixed tail appended
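Also: lentivirally expressed fusions sorted by FACS into six bins by GFP to DsRed ratio, PSI derived from sequencing read proportions per bin multiplied by bin number.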

Protein stability index of substitutions, site by site:
P21: E 3.55 | D 3.81 | A 3.59 | C 3.29 | F 2.81
G5: P 4.07 | T 4.11 | I 4.11 | Q 4.19 | K 4.23 | W 1.66 | D 4.67 | V 3.96 | L 3.19 | Y 1.82 | A 2.44 | R 3.78 | F 1.51 | H 3.79 | M 3.01 | S 3.3 | N 4.08 | C 2.75 | E 4.17
A9: Q 4.06 | T 2.99 | K 3.52 | C 3.37 | N 3.83 | Y 2.13 | R 3.47 | W 2.45 | F 2.02 | L 2.62 | I 2.86 | S 3.1 | P 3.53 | D 4.02 | M 3.06 | E 3.74 | H 3.31 | V 2.93 | G 3.13
V15: N 3.88 | I 3.84 | H 3.29 | W 1.75 | A 3.62 | L 3.44 | D 3.49 | F 2.73 | E 3.77 | P 3.63 | K 3.58 | C 3.16 | Q 3.62 | R 3.28 | S 3.84 | G 3.1 | T 3.7 | M 3.01 | Y 2.93
S3: R 2.83 | V 3.61 | Q 3.81 | P 3.63 | Y 2.34 | T 4 | W 3.44
Q6: P 4.23 | Y 1.94 | D 4.37 | F 2.5 | K 2.76 | R 3.01 | L 2.81 | M 2.8 | G 3.65 | S 3.65 | C 2.42 | E 4.16 | H 3.58 | N 3.62 | W 1.47 | I 2.72 | T 3.96 | A 3.72 | V 3.41
A10: C 2.75 | K 2.87 | N 3.13 | H 3.55 | E 3.8 | R 3.05 | I 3.22 | F 2.22 | P 3.25 | V 2.99 | M 3.18 | T 3.41 | Y 2.95 | L 3.18 | D 3.69 | W 2.24 | G 3.72 | Q 3.42 | S 3.73
A4: Q 3.77 | V 3.9 | D 4.68 | N 4.08 | S 3.27 | L 4.25 | T 4.39 | E 4.58 | Y 3.51 | I 4.41 | C 2.52 | R 3.87 | H 3.71 | K 3.71 | M 3.8 | P 4.16 | F 3.82 | W 2.62 | G 2.98
T17: G 3.78 | W 2.25 | P 3.3 | A 3.03 | R 3.19 | C 3.12 | M 3.03 | D 4.02 | K 3.27 | L 2.84 | I 3.03 | N 3.65 | F 3.05 | H 3.26 | Y 2.85 | S 3.88 | Q 4.12 | E 3.9 | V 2.81
Q12: M 2.83 | I 2.54 | H 3.18 | K 3.38 | L 2.67 | D 3.69 | A 3.13 | G 3.37 | F 2.28 | S 3.36 | Y 2.46 | C 3.51 | V 3.36 | E 3.18 | P 3.88 | N 3.41 | T 3.61 | R 3.1
F19: E 4.06 | I 3.64 | R 4.11 | L 3.91 | T 3.55 | G 4.15 | A 3.85 | D 4.4 | N 4.33 | S 4.03 | H 3.77 | V 3.35 | Q 3.97 | Y 3.79 | M 3.76 | P 3.29 | W 3.41 | K 4.17 | C 3.49
K20: E 3.98 | P 3.35 | Q 3.47 | M 3.33 | A 3.2 | D 4.07 | G 3.77 | Y 2.79 | T 3.59 | F 2.35 | S 3.34 | I 3.34 | H 3.49 | R 3.49 | V 3.25 | N 3.72 | W 2.59 | C 3.85 | L 3.2
D18: Y 2.36 | T 3.4 | S 2.81 | V 2.61 | L 2.32 | I 2.67 | E 3.63 | G 2.8 | N 3.79 | M 2.85 | W 2.51 | H 2.74 | F 2.34 | C 2.65 | K 2.99 | A 3.31 | Q 3.02 | P 3.11 | R 2.96
Q8: P 3.38 | F 1.48 | N 3.57 | E 4.04 | A 4.04 | R 3.47 | M 2.72 | I 2.76 | S 3.68 | V 3.31 | D 3.87 | K 3.89 | T 3.47 | Y 1.71 | G 3.77 | H 3.35 | L 2.11 | C 3.23 | W 1.89
A7: R 3.26 | Q 3.5 | P 3.51 | W 2.44 | V 3.36 | G 3.58 | L 2.27 | M 2.93 | D 3.98 | H 3.55 | N 3.94 | S 3.87 | C 2.47 | T 3.49 | Y 1.65 | K 3.49 | I 3.15 | F 2.17 | E 3.94
G16: P 3.42 | V 3.25 | D 3.75 | F 3.17 | A 3.13 | Q 3.93 | W 2.3 | L 3.21 | E 3.94 | Y 2.9 | S 3.48 | T 3.64 | R 3.42 | C 3.37 | N 3.65 | H 3.52 | M 3.04 | K 3.12 | I 3.27
V11: E 3.84 | G 3.72 | S 4.27 | M 3.36 | Y 3 | T 3.58 | K 3.45 | I 3.25 | W 2.38 | R 4.12 | H 3.74 | Q 3.72 | C 3.1 | N 3.32 | P 3.62 | D 3.68 | F 2.58 | L 3.07 | A 3.73
G13: W 2.53 | D 3.74 | E 3.79 | R 3.5 | K 3.76 | L 3.69 | P 3.57 | Y 3.12 | F 2.9 | V 3.23 | M 3.38 | S 3.69 | Q 3.09 | I 3.22 | N 3.58 | C 3.4 | H 3.37 | T 3.52 | A 3.26
P14: E 3.92 | G 3.54 | C 3.04 | A 3.47 | R 3.36 | Y 3.44 | N 3.68 | W 1.97 | L 3.04 | V 3.32 | S 3.34 | H 3.71 | M 3.22 | Q 3.62 | F 2.55 | I 2.98 | T 3.3 | K 2.8 | D 4.01
